Key:
[1] = tested on: Xchk1; experiment: Checkpoint-dependent phosphorylation of Xchk1 in XtopBP1-depleted egg extracts with aphidicolin and sperm nuclei; assay type: biochemical, Xenopus; conditions: added back to XtopBP1-depleted extract, aphidicolin
Description: Applicants proceeded to remove endogenous XtopBP1 from egg extracts by immunodepletion with anti-XtopBP1 antibodies (FIG. 7C). In parallel, Applicants used control antibodies to prepare mock-depleted extract. Next, Applicants added back wild-type His6-XtopBP1 or the His6-XtopBP1-W1138R mutant to aliquots of the XtopBP1-depleted extract. Finally, Applicants added aphidicolin and demembranated Xenopus sperm nuclei to the various extracts in order to create stalled replication forks and then examined phosphorylation of Xchk1 (FIG. 7D).
(§1) Extracts from Xenopus eggs were prepared as described (Kumagai and Dunphy, 2000). A DNA replication checkpoint response was induced by addition of 50 μg/ml aphidicolin into extracts containing demembranated sperm nuclei (3000 per μl) (Kumagai and Dunphy, 2000). To monitor DNA replication, extracts containing 1000 sperm nuclei/μl were incubated with [α-^32P]dATP (Yoo et al., 2004).
Xatr and Xatrip were immunodepleted as described (Kumagai et al., 2004). For immunodepletion of XtopBP1, we incubated 100 μl egg extract twice for 60 min with 10 μl Affiprep protein A beads (BioRad) containing 35 μg anti-XtopBP1 antibodies.

[2] = tested on: chromosomal DNA replication; experiment: Chromosomal DNA replication in XtopBP1-depleted egg extracts; assay type: biochemical, Xenopus; conditions: XtopBP1-depleted extracts with protein added back
Description: In conjunction with these experiments, Applicants also examined chromosomal DNA replication in extracts containing either wild-type or W1138R His6-XtopBP1. […] Therefore, the defect in phosphorylation of Xchk1 in the extracts containing this mutant is not due to a failure in the assembly of DNA replication forks.
as §1

[3] = tested on: Xatr-Xatrip; experiment: Kinase assay of Xatr-Xatrip complexes isolated from Xenopus egg extracts; assay type: biochemical; conditions: for activation of Xatr kinase activity toward PHAS-I: isolated Xatr-Xatrip complexes, 32P-ATP, result in words
Xatr-Xatrip, sequence (Q9DE14 whole entry, the tested form may be a part): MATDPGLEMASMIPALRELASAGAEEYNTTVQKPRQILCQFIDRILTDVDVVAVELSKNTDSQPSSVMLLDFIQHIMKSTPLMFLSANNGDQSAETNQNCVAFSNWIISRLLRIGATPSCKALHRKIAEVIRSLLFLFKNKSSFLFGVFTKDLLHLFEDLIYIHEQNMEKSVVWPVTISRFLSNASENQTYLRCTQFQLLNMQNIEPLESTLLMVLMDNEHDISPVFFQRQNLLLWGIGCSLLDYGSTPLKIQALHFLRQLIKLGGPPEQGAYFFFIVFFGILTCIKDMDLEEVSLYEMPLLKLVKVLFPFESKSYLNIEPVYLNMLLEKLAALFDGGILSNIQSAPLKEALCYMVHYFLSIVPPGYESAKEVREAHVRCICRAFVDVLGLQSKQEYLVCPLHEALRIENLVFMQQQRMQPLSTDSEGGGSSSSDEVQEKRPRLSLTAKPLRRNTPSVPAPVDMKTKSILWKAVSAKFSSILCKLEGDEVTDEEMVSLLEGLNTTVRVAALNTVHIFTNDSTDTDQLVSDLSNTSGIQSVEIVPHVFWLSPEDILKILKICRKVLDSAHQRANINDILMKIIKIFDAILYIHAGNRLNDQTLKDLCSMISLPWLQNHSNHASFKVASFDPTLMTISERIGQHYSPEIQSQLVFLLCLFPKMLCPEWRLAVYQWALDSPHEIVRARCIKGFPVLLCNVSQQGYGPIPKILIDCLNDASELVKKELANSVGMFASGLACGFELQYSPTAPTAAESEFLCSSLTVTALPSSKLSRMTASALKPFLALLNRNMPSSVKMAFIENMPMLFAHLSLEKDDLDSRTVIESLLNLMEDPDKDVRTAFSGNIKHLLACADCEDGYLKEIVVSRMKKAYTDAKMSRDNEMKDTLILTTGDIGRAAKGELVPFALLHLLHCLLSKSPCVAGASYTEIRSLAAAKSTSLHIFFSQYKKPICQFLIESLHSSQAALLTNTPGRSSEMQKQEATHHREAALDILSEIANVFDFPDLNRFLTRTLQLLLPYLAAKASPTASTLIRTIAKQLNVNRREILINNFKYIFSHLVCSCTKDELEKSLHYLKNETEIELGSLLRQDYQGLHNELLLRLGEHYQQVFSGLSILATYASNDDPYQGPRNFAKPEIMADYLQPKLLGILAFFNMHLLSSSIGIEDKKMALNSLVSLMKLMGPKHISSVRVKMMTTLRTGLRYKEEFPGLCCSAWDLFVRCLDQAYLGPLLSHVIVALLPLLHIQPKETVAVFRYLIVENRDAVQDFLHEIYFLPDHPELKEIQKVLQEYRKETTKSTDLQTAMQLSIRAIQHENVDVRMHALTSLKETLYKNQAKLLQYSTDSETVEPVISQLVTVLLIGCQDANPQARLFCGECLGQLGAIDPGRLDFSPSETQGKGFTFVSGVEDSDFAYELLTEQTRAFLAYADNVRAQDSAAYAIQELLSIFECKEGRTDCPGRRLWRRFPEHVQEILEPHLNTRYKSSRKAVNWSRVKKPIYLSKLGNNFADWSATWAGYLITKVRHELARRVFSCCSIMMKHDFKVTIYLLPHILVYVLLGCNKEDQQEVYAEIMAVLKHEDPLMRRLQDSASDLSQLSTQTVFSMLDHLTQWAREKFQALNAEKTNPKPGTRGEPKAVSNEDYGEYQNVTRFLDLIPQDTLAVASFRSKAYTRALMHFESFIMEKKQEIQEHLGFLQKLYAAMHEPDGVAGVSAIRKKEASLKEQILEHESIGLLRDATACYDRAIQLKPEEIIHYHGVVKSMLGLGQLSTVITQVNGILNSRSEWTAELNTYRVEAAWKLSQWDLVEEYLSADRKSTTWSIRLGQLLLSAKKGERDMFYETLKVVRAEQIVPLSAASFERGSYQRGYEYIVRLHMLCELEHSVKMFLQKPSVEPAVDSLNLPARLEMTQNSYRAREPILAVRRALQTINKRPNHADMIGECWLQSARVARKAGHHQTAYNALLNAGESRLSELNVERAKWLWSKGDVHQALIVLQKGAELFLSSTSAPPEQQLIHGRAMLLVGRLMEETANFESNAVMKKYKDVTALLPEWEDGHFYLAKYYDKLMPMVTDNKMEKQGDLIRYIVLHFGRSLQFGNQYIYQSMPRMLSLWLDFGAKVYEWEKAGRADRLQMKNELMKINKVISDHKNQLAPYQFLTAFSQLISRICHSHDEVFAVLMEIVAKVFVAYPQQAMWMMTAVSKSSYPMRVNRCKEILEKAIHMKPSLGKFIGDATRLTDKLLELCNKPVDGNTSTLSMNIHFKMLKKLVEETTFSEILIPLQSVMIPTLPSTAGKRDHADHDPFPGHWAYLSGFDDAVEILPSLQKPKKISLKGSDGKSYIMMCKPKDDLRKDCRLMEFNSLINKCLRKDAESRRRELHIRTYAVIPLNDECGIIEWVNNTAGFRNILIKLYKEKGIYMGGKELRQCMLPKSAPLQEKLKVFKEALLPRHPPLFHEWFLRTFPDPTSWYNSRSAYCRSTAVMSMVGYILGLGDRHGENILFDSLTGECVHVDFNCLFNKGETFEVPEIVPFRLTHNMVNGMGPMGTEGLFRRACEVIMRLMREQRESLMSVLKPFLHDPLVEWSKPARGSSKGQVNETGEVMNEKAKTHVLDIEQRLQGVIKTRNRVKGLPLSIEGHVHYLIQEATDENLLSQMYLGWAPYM
Description: Specifically, Applicants first isolated Xatr from egg extracts by pull-downs with FLAG-tagged Xenopus ATRIP (Xatrip). For these experiments, Applicants used both full-length Xatrip and an N-terminal truncation mutant (ΔN222) that supports normal Xatr-dependent activation of Xchk1 in egg extracts (Kumagai et al., 2004; Kim et al., 2005).
Applicants eluted the beads with FLAG peptide and mixed the eluates with a His6-tagged version of XtopBP1 that had been purified from baculovirus-infected insect cells (FIG. 1B). Finally, Applicants added ^32P-ATP and PHAS-I, a commonly used model substrate for ATR (Abraham, 2001).
Xatrip-FLAG and XatripΔN222-FLAG (20 ng/μl each) were incubated in interphase extracts containing anti-FLAG M2 antibody beads (Sigma) for 60 min at room temperature. The beads were isolated and washed twice with buffer A (10 mM HEPES-KOH (pH 7.5), 150 mM NaCl, 0.1% CHAPS, and 2.5 mM EGTA) and twice with HEPES-buffered saline (HBS; 10 mM HEPES-KOH (pH 7.5) and 150 mM NaCl). Xatr-Xatrip complexes were eluted in one-tenth the volume of the egg extract in HBS containing 0.1 mg/ml 3×-FLAG peptide (Sigma) for 60 min at 4° C. Eluates (2 μl) were used for kinase assays as described below.
(§2) Samples were incubated in 20 μl kinase buffer (50 mM Tris-HCl (pH 7.5), 10 mM MgCl2, 1 mM dithiothreitol, 100 μM nonradioactive ATP, and 100 μCi/ml [γ-^32P]ATP) containing 12.5 μg/ml PHAS-I or 50 μg/ml GST-Xmcm2 (62-122) for 30 min at room temperature. GST-XtopBP1 (972-1279) was added at a final concentration of 100 μg/ml unless indicated otherwise. In some cases, GST-Xmcm2 (62-122), GST-Xchk1 (306-352), or full-length Xchk1-Myc-His6 were used as substrates with only […] nonradioactive ATP. Reactions were terminated by boiling in gel sample buffer.

[4] = tested on: human ATR; experiment: Kinase assay of recombinant human FLAG-ATR against S92 of GST-Xmcm2 (62-122); assay type: biochemical
Description: (§3) Specifically, Applicants isolated wild-type and kinase-deficient versions of FLAG-tagged human ATR from nuclear extracts of U2OS cells that conditionally express these proteins (FIG. 5C). The recombinant ATR proteins were purified with anti-FLAG magnetic beads under conditions that preserve the binding of endogenous ATRIP (Ünsal-Kacmaz and Sancar, 2004). Next, Applicants incubated both the wild-type and kinase-deficient FLAG-ATR preparations in the absence or presence of GST-XtopBP1 (972-1279), and measured kinase activity against S92 of the GST-Xmcm2 (62-122) peptide.
as §2
(§4) U2OS cells conditionally expressing wild-type (GW33) or kinase-deficient (GK41) human FLAG-ATR were cultured as described (Nghiem et al., 2001). Cells were induced with 1 μg/ml doxycycline for 48 hr. Nuclear extracts were prepared as described (Dignam et al., 1983) except that nuclei were lysed by brief sonication and the concentration of NaCl in the nuclear isolation buffer was reduced to 350 mM in order to preserve the binding of endogenous ATRIP to recombinant ATR. FLAG-ATR proteins were isolated by an overnight incubation with anti-FLAG antibodies bound to protein G-magnetic beads (Dynal) and eluted with 3×-FLAG peptide.

[5] = biological target: T1, human ATR (Homo sapiens, UniProt Q13535); experiment: as above; assay type: biochemical; conditions: wild-type human FLAG-ATR from U2OS nuclear extracts
T1 construct: expressed in transfected cells; host or cells: U2OS GW33 cells (doxycycline-inducible), nuclear extract, anti-FLAG purification
Description: as §3, §2, §4

[6] = biological target: Xatr-Xatrip (Xenopus laevis, UniProt Q9DE14); experiment: Glutathione bead pull-down of Xatr and Xatrip from egg extracts; assay type: binding; parameters: incubated glutathione beads containing GST-XtopBP1 (972-1279) in egg extracts, reisolated the beads, and performed immunoblotting for both Xatr and Xatrip; Applicants removed endogenous Xatrip from egg extracts by immunodepletion with anti-Xatrip antibodies; from tissue; host or cells: Xenopus egg extract; conditions: Xatrip-depleted extracts
Xatr-Xatrip (Xenopus laevis, UniProt Q9DE14), sequence (Q9DE14 whole entry, the tested form may be a part): as above
Description: (§5) Specifically, Applicants incubated glutathione beads containing GST-XtopBP1 (972-1279) in egg extracts, reisolated the beads, and performed immunoblotting for both Xatr and Xatrip. […] In addition, in other experiments, there was no binding of Xatr or Xatrip to beads containing GST fusions of the 1-348, 333-646, or 623-984 segments from XtopBP1 (data not shown).
(§6) Applicants also tested to see if the association of XtopBP1 with Xatr depends upon Xatrip. For this experiment, Applicants removed endogenous Xatrip from egg extracts by immunodepletion with anti-Xatrip antibodies. As described previously, this procedure leaves behind approximately 30% of the endogenous Xatr, the fraction that is not in a complex with Xatrip (Kumagai et al., 2004). Next, Applicants added GST-XtopBP1 (972-1279) to the Xatrip-depleted extracts and to mock-depleted extracts that had been prepared in parallel.

[7] = tested on: Xatr-Xatrip; experiment: as above; assay type: binding, Xenopus
Description: as §5, §6

[8] = tested on: Xchk1; experiment: Ectopic phosphorylation of 35S-Xchk1 in Xenopus egg extracts without checkpoint-inducing DNA; assay type: biochemical; conditions: 35S-Xchk1, tautomycin, no checkpoint-inducing DNA template
Description: Because the GST-XtopBP1 (972-1279) fragment could activate Xatr in vitro without the inclusion of DNA, Applicants reasoned that ectopic addition of this fragment to Xenopus egg extracts might also be able to trigger the Xatr-dependent phosphorylation of Xchk1 even in the absence of a checkpoint-inducing DNA template.
as §1

[9] = tested on: Xatm; experiment: Kinase assay of immunoprecipitated Xatm toward PHAS-I; assay type: biochemical, Xenopus; conditions: Xatm immunoprecipitated from egg extracts
Description: Applicants have also shown that TopBP1 is a specific activator of ATR and not a general activator of the PIKK family. Specifically, Applicants immunoprecipitated both Xatr and Xatm in parallel from Xenopus egg extracts and then incubated the immunoprecipitates with GST-XtopBP1 (972-1279) (FIG. 3F).
as §2

| Molecule | rescue of phosphorylation of Xchk1 [1] | chromosomal DNA replication [2] | activation of Xatr kinase activity toward PHAS-I [3] | kinase activity in mock preparation of magnetic beads ([4]; beads lacking anti-FLAG antibodies) | activity of kinase-deficient FLAG-ATR ([4]; kinase-deficient human FLAG-ATR) | kinase activity of wild-type FLAG-ATR [5] | binding of Xatr to the XtopBP1 fragment [6] | binding of Xatr to the XtopBP1 fragment ([7]; Xatrip-depleted extracts plus recombinant XatripΔN222-FLAG) | binding of Xatr and Xatrip to glutathione beads ([7]; egg extracts, immunoblotting) | binding of Xatr to the XtopBP1 fragment ([7]; mock-depleted extracts) | phosphorylation of Xchk1 in egg extracts [8] | activation of immunoprecipitated Xatr ([3]; Xatr immunoprecipitated from egg extracts, PHAS-I) | Xatr-dependent phosphorylation of GST-Xmcm2 (62-122) peptide ([3]; substrate GST-Xmcm2 (62-122), S92) | phosphorylation of GST-Xchk1 (306-352) peptide and full-length Xchk1-Myc-His6 on S344 ([3]; substrates GST-Xchk1 (306-352) and Xchk1-Myc-His6) | activation of Xatm [9] |
| --- | --- | --- | --- | --- | --- | --- | --- | --- | --- | --- | --- | --- | --- | --- | --- |
| His6-XtopBP1-W1138R: version of full-length His6-XtopBP1 with the W1138R mutation | could not restore the phosphorylation of Xchk1 | not inhibited | unable to activate Xatr |  |  |  |  |  |  |  |  |  |  |  |  |
| GST-XtopBP1 (972-1279): GST fusion protein containing conserved region between BRCT domains VI and VII (residues 972-1279) of XtopBP1 (protein, left off: a dimerising Fc or GST, GST fusion protein containing conserved region between BRCT domains VI and VII (residues 972-1279) of XtopBP1) EQQKRVPEALYPHTYNPKMSLDISAVQDGSYTASKFSADTSLQQDENSELQLQQNNKFGETSDDQVKKAAGDGNPQNPSKDVKGALTQTLEMRENFQRQLQEFMSATSVVKPRGSVGRAGFDNSPCTPEGARSTRNGRSRVLEALRQSRQAMTDLNTEPSQNEQIIWDDPTAREERAKLVSNLQWPDSPSQYSEQLQHNMNDAGGNYTPAKESLTDSEIAELEACEFEPKSAMRTPVIENNLQSPTKPDHLTPTPQAPSIAFPLANPPVAPQPREKPVQPFSKEETLKERRFQLSSLDPQERIDYSQL |  |  | induced activation of Xatr as effectively as full-length XtopBP1 | did not induce any kinase activity | neither the intact nor W1138R mutant form of GST-XtopBP1 (972-1279) had any effect | large increase | no binding | restore the binding | could clearly detect binding | good binding | very robust phosphorylation | strong activation | induced a strong Xatr-dependent phosphorylation | readily induced phosphorylation | no activation of Xatm |

Source: patent publication US8080531B2, “Methods for modulating checkpoint activation through TopBP1” (California Institute of Technology, priority 2006, dated 2011)
